Results on two molecules are retold here after publication PMC11757143, “Generation and characterization of OX40-ligand fusion protein that agonizes OX40 on T-Lymphocytes” (Frontiers in Immunology, 2025).

One assay deals with T1, OX40-Fc (Mus musculus, UniProt P47741).
T1 construct: made in house
T1 sequence (P47741 20-211 limits assumed): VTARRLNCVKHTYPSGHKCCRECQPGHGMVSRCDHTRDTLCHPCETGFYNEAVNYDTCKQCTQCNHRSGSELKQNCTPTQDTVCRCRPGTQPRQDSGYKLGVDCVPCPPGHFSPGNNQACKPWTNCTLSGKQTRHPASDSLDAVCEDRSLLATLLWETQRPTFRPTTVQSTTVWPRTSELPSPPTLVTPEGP
Set-up: method as in PMID 36450532, PMID 37371066. The settings on record: previous studies; ref [23], [24]; cited from earlier work.

Assay [1] has as its system antigen-specific T cell responses of draining lymph node cells. Description: Antigen recall responses of dLN cells from TNP-KLH/CFA-immunized mice (cytokine ELISA, MTT proliferation). The format is in vivo, C57BL/6 mice. As to conditions: for antigen-specific T cell responses (recall IFN-γ, IL-17, IL-4 production and proliferation of dLN cells): 20 µg i.p. on days 1 and 3, TNP-KLH/CFA day 0, dLN day 7, KLH recall 3 days. An excerpt:
The following reagents were used for the measurement of cytokines from T cells: anti-IL-2 (JES6-1A12, 503701, BioLegend, San Diego, CA, U.S.A.) capture antibody, biotin-anti-IL-2 (JES6-5H4, 503803, BioLegend) detection antibody, anti-IFN-γ (R4-6A2, 505702, BioLegend) capture antibody, biotin-anti-IFN-γ (XMG1.2, 505804, BioLegend) detection antibody, anti-IL-4 (11B11, 504101, BioLegend) capture antibody, biotin-anti-IL-4 (BVD6-24G2, 504201, BioLegend) detection antibody, anti-IL-17A (TC11-18H10.1, 506901, BioLegend) capture antibody, biotin-anti-IL-17A (TC11-8H4, 507001, BioLegend) detection antibody, HRP streptavidin (405210, BioLegend), and 3,3’,5,5’-tetramethylbenzidine (TMB, 421101, BioLegend). The absorbance was measured at 450 nm or 620 nm using a FilterMax F5 (Molecular Devices, San Jose, CA, U.S.A.).
Groups of C57BL/6 mice from both male and female mice aged between 5 and 15 weeks were immunized subcutaneously at the footpad with 100 µg of 2,4,6-trinitrophenyl-conjugated keyhole limpet hemocyanin (TNP-KLH) emulsified in complete Freund’s adjuvant (CFA) (F5881, Merck) on day 0. Recombinant proteins in PBS were injected intraperitoneally on days 1 and 3. On day 7, pooled dLN cells were plated in 200 µL volumes in 96-well plates in triplicate in the presence or absence of KLH. Cells were harvested at 18 hours for the AIM assay. Culture supernatants were harvested at 72 hours for cytokine ELISA. Cell viability on day 3 was assessed with a 3-(4,5-dimethylthiazol-2-yl)-2,5-diphenyl-tetrazolium (MTT) (M2128, Merck) assay.

The subject of assay [2] is antigen-specific CD4+ T cells. The experiment in a line: Activation-induced marker (AIM) assay on dLN cells from TNP-KLH/CFA-immunized mice. The assay is classed as in vivo, C57BL/6 mice. As to conditions: 20 µg i.p. on days 1 and 3, KLH 18 hours. As to the method:
To perform the activation-induced marker (AIM) assay, a valuable method to detect antigen-specific CD4^+ T cells ([29], [30]), draining lymph node (dLN) cells were initially incubated with IgG from rat serum (14131, Merck) to block nonspecific binding. The following antibodies were used for cell-surface staining: PE/Cyanine7 anti-mouse CD4 (GK1.5, 100421, BioLegend), Alexa Fluor® 488 anti-mouse CD25 (PC61, 102018, BioLegend), and APC anti-mouse CD134 (OX-40) (OX-86, 119413, BioLegend). For Foxp3 staining, cells were fixed and permeabilized with the eBioscience™ Foxp3/Transcription Factor Staining Buffer Set (00-5523-00, Thermo Fisher), then stained with PE Anti-Mo/Ra FOXP3, eBioscience™ (FJK-16s, 12-5773-08, Thermo Fisher). Data were acquired on a FACS Canto II or a Celesta (BD Biosciences, Franklin Lakes, NJ, U.S.A.) and analyzed with BD FACS Diva software version 9 or Flowing software version 2 (Turku Bioscience, Turku, Finland, http://flowingsoftware.btk.fi/).
Groups of C57BL/6 mice from both male and female mice aged between 5 and 15 weeks were immunized subcutaneously at the footpad with 100 µg of 2,4,6-trinitrophenyl-conjugated keyhole limpet hemocyanin (TNP-KLH) emulsified in complete Freund’s adjuvant (CFA) (F5881, Merck) on day 0. […] Cell viability on day 3 was assessed with a 3-(4,5-dimethylthiazol-2-yl)-2,5-diphenyl-tetrazolium (MTT) (M2128, Merck) assay.

B1: Fc-scOX40L: Fusion protein: Fc, PA, single-chain OX40L trimer (three OX40L joined by GGGSGGG linkers), His6; dimer of trimers (protein)
chain: SSSPAKDPPIQRLRGAVTRCEDGQLFISSYKNEYQTMEVQNNSVVIKCDGLYIIYLKGSFFQEVKIDLHFREDHNPISIPMLNDGRRIVFTVVASLAFKDKVYLTVNAPDTLCEHLQINDGELIVVQLTPGYCAPEGSYHSTVNQVPLGGGSGGGSSSPAKDPPIQRLRGAVTRCEDGQLFISSYKNEYQTMEVQNNSVVIKCDGLYIIYLKGSFFQEVKIDLHFREDHNPISIPMLNDGRRIVFTVVASLAFKDKVYLTVNAPDTLCEHLQINDGELIVVQLTPGYCAPEGSYHSTVNQVPLGGGSGGGSSSPAKDPPIQRLRGAVTRCEDGQLFISSYKNEYQTMEVQNNSVVIKCDGLYIIYLKGSFFQEVKIDLHFREDHNPISIPMLNDGRRIVFTVVASLAFKDKVYLTVNAPDTLCEHLQINDGELIVVQLTPGYCAPEGSYHSTVNQVPL
modifications: left off: Fc (human IgG1: hinge, CH2, CH3), N-terminal, kept | PA tag (…), internal (between Fc and the first OX40L), kept | His6, C-terminal, kept
notes: Fusion protein: Fc, PA, single-chain OX40L trimer (three OX40L joined by GGGSGGG linkers), His6; dimer of trimers
For B1, in the assay with OX40-Fc, the “specific interaction with OX40” value is reported as “specifically interact with OX40”. Further, in assay [1], the “antigen-specific T cell responses (recall IFN-γ, IL-17, IL-4 production and proliferation of dLN cells)” value was “elicited stronger antigen-specific T cell responses than Fc-MBL-OX40L (B) and scOX40L-Fc (D)”. In addition, the “induction of IL-4-producing cells” value in assay [1] (TNP-KLH/CFA-immunized mice, Figures 7, 9) was “promoted the induction of IL-4-producing cells”. For the same molecule, the “frequency of OX40+CD25+Foxp3+CD4+ cells (AIM assay)” value in assay [2] is listed as “significantly enhanced frequency”. Also, the “frequency of OX40+CD25+Foxp3-CD4+ cells (AIM assay)” value in assay [2] (compared to control (PBS) or OX86) is “significantly increased frequency”.

B2: scOX40L-Fc: Fusion protein: OX40L, Linker, OX40L, Linker, OX40L, Fc, PA, and His6 (protein)
chain: SSSPAKDPPIQRLRGAVTRCEDGQLFISSYKNEYQTMEVQNNSVVIKCDGLYIIYLKGSFFQEVKIDLHFREDHNPISIPMLNDGRRIVFTVVASLAFKDKVYLTVNAPDTLCEHLQINDGELIVVQLTPGYCAPEGSYHSTVNQVPLGGGSGGGSSSPAKDPPIQRLRGAVTRCEDGQLFISSYKNEYQTMEVQNNSVVIKCDGLYIIYLKGSFFQEVKIDLHFREDHNPISIPMLNDGRRIVFTVVASLAFKDKVYLTVNAPDTLCEHLQINDGELIVVQLTPGYCAPEGSYHSTVNQVPLGGGSGGGSSSPAKDPPIQRLRGAVTRCEDGQLFISSYKNEYQTMEVQNNSVVIKCDGLYIIYLKGSFFQEVKIDLHFREDHNPISIPMLNDGRRIVFTVVASLAFKDKVYLTVNAPDTLCEHLQINDGELIVVQLTPGYCAPEGSYHSTVNQVPL
modifications: left off: Fc (human IgG1: hinge, CH2, CH3), C-terminal, kept | PA tag (…), C-terminal, kept | His6, C-terminal, kept
B2: in assay [1], the “antigen-specific T cell responses (recall IFN-γ, IL-17, IL-4 production and proliferation of dLN cells)” value is “triggered significantly higher T cell responses compared to the None (PBS) control group”.
